Test results reported in patent publication US20020192704A1.

Target: IRR-Fc fusion protein (extracellular region of mouse insulin receptor-related receptor, 1-920th residues, fused to the H-chain C (constant) region (Fc region) of human IgG1) (mouse; human) (UniProt Q9WTL4)
Test: SPR (BIACORE 2000), IRR-Fc immobilised on a CM5 chip, IR-Fc flow cell subtracted; about 10 ug of specimen in 200 ul of buffer

IRR-Fc fusion protein (extracellular region of mouse insulin receptor-related receptor, 1-920th residues, fused to the H-chain C (constant) region (Fc region) of human IgG1) (mouse; human), sequence (Q9WTL4 27-920 limits assumed, form in doubt): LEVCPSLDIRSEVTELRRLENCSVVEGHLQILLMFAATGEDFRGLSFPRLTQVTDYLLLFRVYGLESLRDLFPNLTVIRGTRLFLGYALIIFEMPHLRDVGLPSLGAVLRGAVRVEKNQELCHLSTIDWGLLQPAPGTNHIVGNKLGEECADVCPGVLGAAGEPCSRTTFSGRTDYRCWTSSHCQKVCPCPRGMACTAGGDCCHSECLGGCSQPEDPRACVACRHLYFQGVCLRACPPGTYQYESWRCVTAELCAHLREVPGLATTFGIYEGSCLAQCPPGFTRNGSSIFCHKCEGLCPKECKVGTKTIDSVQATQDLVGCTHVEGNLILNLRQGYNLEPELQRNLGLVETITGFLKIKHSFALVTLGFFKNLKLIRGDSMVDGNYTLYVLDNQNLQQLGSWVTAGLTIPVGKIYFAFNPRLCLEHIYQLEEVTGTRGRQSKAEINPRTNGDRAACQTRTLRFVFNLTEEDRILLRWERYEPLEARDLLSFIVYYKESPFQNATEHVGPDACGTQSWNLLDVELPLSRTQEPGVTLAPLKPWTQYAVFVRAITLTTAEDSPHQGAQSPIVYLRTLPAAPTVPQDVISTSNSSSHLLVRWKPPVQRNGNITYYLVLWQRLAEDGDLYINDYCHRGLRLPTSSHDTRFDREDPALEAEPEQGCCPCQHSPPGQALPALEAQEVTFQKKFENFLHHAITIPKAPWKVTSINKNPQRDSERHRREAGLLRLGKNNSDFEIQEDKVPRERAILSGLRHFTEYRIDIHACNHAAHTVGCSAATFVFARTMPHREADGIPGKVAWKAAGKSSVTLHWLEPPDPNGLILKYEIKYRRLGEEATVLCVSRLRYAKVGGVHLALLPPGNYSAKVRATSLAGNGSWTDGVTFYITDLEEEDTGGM

“Peak 1 of the re-purified IRR ligand from rat C6 glioma cell culture supernatant (rat epithelin/granulin precursor fragments, SEQ ID NOS: 5 and 6) (from UniProt P23785 438-494)” gave a binding activity (RU; IRR-Fc binding value minus IR-Fc binding value) of 13 RU.
With “Peak 2 of the re-purified IRR ligand from rat C6 glioma cell culture supernatant (rat epithelin/granulin precursor fragment, SEQ ID NO: 4) (from UniProt P23785 439-494)” the binding activity (RU; IRR-Fc binding value minus IR-Fc binding value) was 21 RU.
